Assay results from publication PMC2200010.

Experiments:
[1] = target: Escherichia coli heat labile toxin B subunit, pentameric, recombinant (Escherichia coli) (UniProt P32890); assay: ELISA
[2] = target: cholera toxin B subunit, pentameric, recombinant (Vibrio cholerae) (UniProt P01556); assay: ELISA
UniProt P01556, sequence (P01556 22-124): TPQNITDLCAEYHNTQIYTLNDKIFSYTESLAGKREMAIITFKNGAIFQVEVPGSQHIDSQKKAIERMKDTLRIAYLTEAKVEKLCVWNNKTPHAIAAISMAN

UniProt P32890, sequence (P32890 22-124): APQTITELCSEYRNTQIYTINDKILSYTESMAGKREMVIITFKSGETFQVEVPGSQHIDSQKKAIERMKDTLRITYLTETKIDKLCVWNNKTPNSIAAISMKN

Row | Substance | stoichiometry N (A subunit per pentameric B subunit) [1] | stoichiometry N (A subunit per pentameric B subunit) [2]
1 | Escherichia coli heat labile toxin A subunit, recombinant wild type (from UniProt P06717 19-258) (natural protein) | 1 | –
2 | cholera toxin A subunit, recombinant wild type (natural protein) | – | 1
